In article PMC4918325, “Mto2 multisite phosphorylation inactivates non-spindle microtubule nucleation complexes during mitosis” (Nature Communications, 2015):

Biological target: T1, Mto1-SZZ (protein A-tagged Mto1) (Schizosaccharomyces pombe, UniProt O94488 1-1115)
T1 construct: Mto1, Schizosaccharomyces pombe; Bait of all IgG-bead pulldowns; also called SZZ-tagged Mto1; source: S. pombe, gene tagged by PCR-based methods, in cell extract
T1 sequence (looked up): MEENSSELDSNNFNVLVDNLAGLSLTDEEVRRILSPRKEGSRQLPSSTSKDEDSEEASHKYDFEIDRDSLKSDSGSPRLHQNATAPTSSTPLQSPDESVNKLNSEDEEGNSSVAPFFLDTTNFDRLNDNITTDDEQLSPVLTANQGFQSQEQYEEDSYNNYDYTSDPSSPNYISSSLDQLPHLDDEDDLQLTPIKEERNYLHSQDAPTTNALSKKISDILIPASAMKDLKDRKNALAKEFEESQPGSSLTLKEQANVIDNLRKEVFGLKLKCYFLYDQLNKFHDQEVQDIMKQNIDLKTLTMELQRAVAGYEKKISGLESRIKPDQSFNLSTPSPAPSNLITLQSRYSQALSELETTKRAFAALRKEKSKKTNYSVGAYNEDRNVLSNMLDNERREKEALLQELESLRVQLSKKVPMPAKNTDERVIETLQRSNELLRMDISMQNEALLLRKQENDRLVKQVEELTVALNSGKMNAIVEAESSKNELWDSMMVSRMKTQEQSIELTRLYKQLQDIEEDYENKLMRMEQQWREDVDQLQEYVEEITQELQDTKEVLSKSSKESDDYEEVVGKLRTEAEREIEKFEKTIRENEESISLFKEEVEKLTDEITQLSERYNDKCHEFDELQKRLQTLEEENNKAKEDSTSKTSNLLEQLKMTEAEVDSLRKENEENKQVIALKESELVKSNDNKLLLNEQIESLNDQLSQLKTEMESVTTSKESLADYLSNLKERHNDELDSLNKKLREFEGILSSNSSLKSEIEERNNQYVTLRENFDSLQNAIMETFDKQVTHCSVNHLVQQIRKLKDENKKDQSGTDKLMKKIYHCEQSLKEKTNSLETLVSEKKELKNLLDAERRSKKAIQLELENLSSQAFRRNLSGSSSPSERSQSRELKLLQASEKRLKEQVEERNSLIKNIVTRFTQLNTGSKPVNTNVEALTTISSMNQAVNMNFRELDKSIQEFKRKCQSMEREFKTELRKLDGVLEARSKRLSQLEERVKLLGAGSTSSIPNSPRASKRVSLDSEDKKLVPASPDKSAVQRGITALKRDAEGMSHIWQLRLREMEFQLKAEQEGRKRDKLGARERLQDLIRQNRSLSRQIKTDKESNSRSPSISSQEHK
Test: pull-down; IgG-coupled Dynabeads pull Mto1-SZZ from extracts of interphase (asynchronous) S. pombe cells (mto2+, mto2[6A], mto2[13A], mto2[17A], mto2[24A]); 90 min at 4 °C; lysis buffer 25 mM sodium phosphate pH 7.5, 100 mM KCl, 0.5 mM EDTA, 0.2% Triton X-100 with protease and phosphatase inhibitors; western blot
Conditions: partners not purified

B1: Gtb1 (S. pombe γ-tubulin) (natural protein, UniProt P25295 1-446, looked up)
chain: MGREIITLQAGQCGNQIGSQFWQQLCLEHGIGPDGTLESFATEGVDRKDVFFYQSDDTRYIPRAILIDLEPRVVNNILSDTYGSLYNPENILITKNGGGAGNNWANGYSHAERIFEDIMDMIDREADGSDSLEGFSLLHSIAGGTGSGLGSFLLERLNDRYPKKIIQTYSVFPNSQSVSDVVVQPYNSLLALKRLTLNADSVVVLDNAALAHIAADRLHTQNPTFHQQNQLVSTVMSASTTTLRYPGYMNNDLVSIIASLIPSPRCHFLLTSYTPFTNQQVEEAKAIRKTTVLDVMRRLLLPKNQMVSVNPSKKSCFISILDIIQGEADPADVHKSLLRIRERRYASFIPWGPASIQVALSKKSPYIKTNHRVSGLMLANHTSIASLFKRTLDQYDRLRKRNAFLEQYKKEAIFEDDLNEFDSSRDVVADLINEYEACEDPNYLSL
notes: γ-tubulin Gtb1, Schizosaccharomyces pombe; Detected by anti-γ-tubulin blot (GTU-88); also called read-out of the γ-tubulin complex (γ-TuC); source: endogenous, S. pombe cell extract
fold change of γ-tubulin copurifying with Mto1-SZZ in mto2[6A] cells relative to wild-type cells: ~1.5 fold | fold change of γ-tubulin copurifying with Mto1-SZZ in mto2[13A] cells relative to wild-type cells: ~1.5 fold | fold change of γ-tubulin copurifying with Mto1-SZZ in mto2[17A] cells relative to wild-type cells: ~3 fold
